First the molecules themselves.
B1: TPR t1 (parent)
chain: GACCAAUCUGCCCUCAGAGCUCGAGAACAUCUUCGGAUGCAGAGGAGGCAGGCUUCGGUGGCGCGAUAGCGCCAACGUCCUCAACCUCCAAUGCAUCCCACCACAUGAUGAUGCCUGAAGAGCCUUGGUUUUUUG

In this data set the parent is B1. The data set can be described thus: polymerase ribozyme fitness, log enrichment relative to wild type (log ratio); higher = more active; in vitro selection for triplet polymerase activity. The procedure, abridged: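 Mutant libraries of each subunit of a heterodimeric triplet polymerase ribozyme were built by PCR and transcribed. Each library went through one round of in vitro selection in triplicate: annealing with biotinylated primer, partner subunit and triplets, frozen incubation at −7 °C, gel excision of extended constructs, streptavidin-bead capture and RT-PCR. Input and output libraries were Illumina-sequenced; only genotypes with ≥10 input reads and ≥1 read per output were kept. Fitness is log2(genotype enrichment/wild-type enrichment), using inverse-variance-weighted replicate averages.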
As to C3A C4A C40U C104A U112G, the “polymerase ribozyme fitness (log ratio)” value was -3.41.
The same measure for C3G U7A C40A G44A A111U: -5.51.
As for C3A C20U U38A G61A C82A G110A G127A, the “polymerase ribozyme fitness (log ratio)” value is -6.34.
The same measure for C3A C22G A37G G71A A111G: -6.05.
Under C3A C4G U7A U21A C40U G47U C114U stands -3.96; under C3A C8G G63C A95C G117A G128U, -0.17; under C3U C8U G61C G120A, 0.504.
The same measure for C3U A43G U55G A111G U126A: -4.64.
Take C3A U7G U32C G93C A111C: the “polymerase ribozyme fitness (log ratio)” value was -1.66.
Under C3G C72A C94G C124A stands -1.46.
The same measure for C3A A6C C12A A50G C56G: -3.05; for C3A A5U G60C A91U G127A: -2.45; for C3G U7A C12U C62A G117U: -6.14.
The same measure for C3U C28U: -2.28; for C3G C82U: -1.74.
C3U C85A G117A: the “polymerase ribozyme fitness (log ratio)” value was -2.52.
The same measure for C3A C73G A119U U129C: -1.93; for C3A C34A: -3.91; for C3G G57A G60A A111C: -2.99.
As to C3G C8G A43U C72U A90C, the “polymerase ribozyme fitness (log ratio)” value was -2.6.
The same measure for C3A U9G C40U G57U A105G: -4.58.
Under C3U C53A G71A U78A stands -0.343.
Under C3G G44A G47A C86G G120A stands -4.34; under C3A U9G G61C G113C, -4.85.
Turning to C3U C12U, the “polymerase ribozyme fitness (log ratio)” value is -1.59.
C3A C4U A46U C114U: the “polymerase ribozyme fitness (log ratio)” value is -4.9.
Turning to C3A A111C, the “polymerase ribozyme fitness (log ratio)” value was -1.17.
Under C3U C40A C56U G120A stands -0.0248; under C3U C8A U54A G69C, -1.46.
The same measure for C3U G17U C72U: -2.73.
The same measure for C3U C12G C13U C62U G120A: 2.11; for C3U C12A U87C C124U: -0.256; for C3U C53G U112A: 0.998.
As for C3U A46U, the “polymerase ribozyme fitness (log ratio)” value was -1.57.
The same measure for C3G A29U G71A A119G: -2.72; for C3U C56U G77C: -1.42; for C3G G47U G93A: -4.99.
The same measure for C3U C12A G69U G117A: -2.56.
The same measure for C3G C22U G61C U109A: -6.73.
With C3G C53G C86G C94U U106G G120A, the “polymerase ribozyme fitness (log ratio)” value is -5.63.
The same measure for C3G C13U G63U A111C: -2.54.
Under C3A C20G G60A C79U C98G C99A C123G stands -2.5; under C3G U78A, -2.46; under C3U A29G G48C C73G C79G C101U, -5.51.
The same measure for A2U U116A: -5.18; for A2U U116C: -1.84; for C3A G51C G69U: -2.31.
Take C3G C11A C115U: the “polymerase ribozyme fitness (log ratio)” value is -6.42.
Under C3A C12U A29G U87C G110A A118U U131G stands -0.49; under C3G C40G, -1.82.
The same measure for C3G C15A: -5.49; for C3U C86U C104A: -1.75; for C3U C8U A105G: -2.67.
Take C3U C85U: the “polymerase ribozyme fitness (log ratio)” value was -1.43.
Turning to C3G G17U A50U U54A A74G A121C G135U, the “polymerase ribozyme fitness (log ratio)” value is -4.33.
Regarding C3A G45U G61A C88U A90C G113A, the “polymerase ribozyme fitness (log ratio)” value was -3.92.
The same measure for C3G C11G G19U G120A: -3.18; for C3U C70G: -2.84; for C3U C70U: -0.813.
The same measure for C3G G47U C64A A90C C104U G113A: -6.9; for C3U C8A A16G A43C C79A C88U C124A U125A U132C: -3.17.
For the variant C3A A29U G61A U130C, the “polymerase ribozyme fitness (log ratio)” value was -1.93.
For C3G G71U, the “polymerase ribozyme fitness (log ratio)” value was -2.64.
With C3A G128U, the “polymerase ribozyme fitness (log ratio)” value was -1.03.
Under C3G G48C stands -2.83; under C3G G36A G39C C53U A121C, -2.59.
On to C3U C53U G117U A118G, for which the “polymerase ribozyme fitness (log ratio)” value is -0.935.
In the case of C3G C62A C82G, the “polymerase ribozyme fitness (log ratio)” value was -3.81.
The same measure for C3G G120C: -0.918.
Under C3G G47C stands -3.72.
The same measure for C3U C53G C89G: -1.41; for C3U A37U A84C: -0.656; for C3G G10U G39U C72U C85U: -3.78.
For the variant C3G A37U C49U A100U G113A U129A, the “polymerase ribozyme fitness (log ratio)” value was -4.75.
Under C3U C53U C73U C88U stands -0.301; under C3U A5G C8G C11G C73U C99A U109A G120A, -5.15.
The same measure for C3A G17U: -4.27.
Consider C3A C53A C73U, for which the “polymerase ribozyme fitness (log ratio)” value was -1.17.
Under C3U A6U stands 0.0323; under C3U C11U G39C G71A A119G, -0.917; under C3G U9A C72A G107U, -6.54.
The same measure for C3U C20G C53A C97U U109A: -3.06; for C3U C13U C15U G48U G113A: -2.97; for C3U C12U C72U C85A: -1.01.
Under C3A C89U U96G C124A stands 0.0977; under C3A A6C U59A C62A U78G C97U G117C G135C, -6.34; under C3G C12G C40A, -3.27.
With C3G A5G U112C, the “polymerase ribozyme fitness (log ratio)” value is -0.649.
Under C3A U32C G69A G120A stands -3.63; under C3U C15A U81A U92G C115U U125G, -5.92.
With C3U A6U G48A C62U C115U, the “polymerase ribozyme fitness (log ratio)” value was -2.86.
For the variant C3A G39A U54C C70U C104U, the “polymerase ribozyme fitness (log ratio)” value was -2.33.
The same measure for C3G C49G C72U A91C G128A U130G: -3.78; for C3U A6U G48A C115U: -2.28.
Under C3G G61U C94A A95C C124A U132C U133C stands -3.25.
Take C3U C12A A46U: the “polymerase ribozyme fitness (log ratio)” value is -1.98.
The same measure for C3G C4G C53U G60U G93A: -3.06; for C3U C4G: -2.81.
Under C3G C88U U106C stands -2.72.
The same measure for C3G G110U: -2.82.
For C3A G42U A46U C73A U112A, the “polymerase ribozyme fitness (log ratio)” value was -2.77.
The same measure for C3A A46C C53A C72U: -1.88; for C3G G36U A83U: -3.46; for C3A C56U G61U G113U G120U U126C: -5.49.
C3U C11U G71A A119G: the “polymerase ribozyme fitness (log ratio)” value is -0.255.
The same measure for C3G G61C: -3.19.
The same measure for C3G G61U: -1.85.
Under C3U C40U C62U A75U G93C U96G stands -3.29; under C3A G61A C79G U112A G135C, -2.83.
With C3G C70U C115U G127U, the “polymerase ribozyme fitness (log ratio)” value was -4.54.
On to C3U A50U G52U, for which the “polymerase ribozyme fitness (log ratio)” value was -3.28.
Under C3G A16U C40U C73A stands -4.45; under C3U C12U A18U U87A C88U, -2.52; under C3A C11A A16U C49A G117A, -4.16.
Under C3G G39U stands -2.39; under C3G U59G C88U C115A, -2.65.
The same measure for C3A U55C G61A C86U: -2.
As to C3A C40G G48C G77C C124U U133A, the “polymerase ribozyme fitness (log ratio)” value is -4.13.
On to C3U A66U, for which the “polymerase ribozyme fitness (log ratio)” value was -1.8.
The same measure for C3U C53U G57C U59A C88G: -2.35.
As for C3G C73A C76U A90G G120U G127U, the “polymerase ribozyme fitness (log ratio)” value is -3.52.
The same measure for C3U C13U C70U G128U: -1.99; for C3U C56G C79A C124G: -0.114; for C3A G71C: -3.03.
The same measure for C3A C15A A41U G58C G71U U92G C114G: -5.03.
The same measure for C3G G61U C104A: -3.47; for C3A G10U: -1.63.
Take C3U C40G G47A C62U A84G: the “polymerase ribozyme fitness (log ratio)” value is -3.81.
Under C3G C73U stands -2.12; under C3G C13A A18G G25U G63A A111C A118G, -6.44.
In the case of C3U A26U G48A U130G, the “polymerase ribozyme fitness (log ratio)” value is -5.25.
The same measure for C3A C12U C102A: -1.7; for C3A G57A U92C: -5.31; for C3U C73U U87C C88U A111G C123A: -3.08.
Under C3U C20A stands -2.93.
Under C3U A27C G58C C64A G93U C101A G113A C115G stands -7.47; under C3G C8A A37U A111G G120A U125C, -3.58; under C3A A5C C13G G36A C79U A84U, -1.28.
For C3A U87A C94U U106G C115U G120C, the “polymerase ribozyme fitness (log ratio)” value is -5.04.
Under C3A C11G stands -1.08.
Under C3U C8A C20U C53U G58A G77A A90G C101U stands -3.06; under C3U C72U C76U C85U U116G C124U U129C, -6.12; under C3U C28U A41G A43U A46C U92C C94U C124U, -4.65.
Take A2U U112G: the “polymerase ribozyme fitness (log ratio)” value was -1.44.
As for C3A A5U C11G G36U G45U, the “polymerase ribozyme fitness (log ratio)” value is -1.02.
Under C3A U7A C123U stands 0.267.
Under C3U C11U A50U C64U U81G C102U G128A stands -3.47; under C3A G10U U129C, -1.94; under C3A G57C A90U C114A U132C, -3.92.
The same measure for C3U C79U C94U G110U: -1.77; for C3A C8U U59A U87G: -1.65; for C3U A16G A90G U112G U116C: 0.876.
On to C3U C11U G42C C56A A74C A105U G120C, for which the “polymerase ribozyme fitness (log ratio)” value was -6.23.
Under C3A C11U G47A G63U G127C stands -3.33; under C3U A46U C73A U87A, -0.663.
C3A C13U C73U: the “polymerase ribozyme fitness (log ratio)” value is -1.44.
The same measure for C3U C11A G47A G110U: -3.77; for C3G G69U A90U G93A U112C: -1.26; for C3U C13U G63A: -1.19.
Under C3A C20U G65A C101A A105C C114U U131G stands -7.29; under C3U C89A, -2.23.
The same measure for C3U C89U: -0.863; for C3G C8A G113C G127C: -2.92; for C3A C15A C53U G63C: -3.45.
As to C3U C4A C53G C62U C88U A90C C123A U130C, the “polymerase ribozyme fitness (log ratio)” value is -0.74.
C3A C115U U125A U129G: the “polymerase ribozyme fitness (log ratio)” value was -5.92.
Under C3G A50U C94G stands -4.4.

These data come from the RNAGym collection of RNA variant scans (doi:10.1073/pnas.2313332121).
